This is an account of results in PMC9755798, “Transcription factor CsESE3 positively modulates both jasmonic acid and wax biosynthesis in citrus”.

For data set [1], the target named is T1, CsESE3 (Citrus sinensis? ('Newhall' navel …, UniProt A0ACB8NL77 1-192)). The experiment in a line: EMSA; EMSA as in Gong et al. 2021b; buffer, salt, pH and temperature not given; 5' FAM probes, 100 uM unlabeled competitor stocks, 7x/14x/28x excess. As to conditions: protein: recombinant; tags: N-terminal His (pETDuet); label: 5' FAM (top strand); blunt. Background: Mobility shift assays separate free from complexed probe on a gel.
T1 sequence (A0ACB8NL77 entry or part of it): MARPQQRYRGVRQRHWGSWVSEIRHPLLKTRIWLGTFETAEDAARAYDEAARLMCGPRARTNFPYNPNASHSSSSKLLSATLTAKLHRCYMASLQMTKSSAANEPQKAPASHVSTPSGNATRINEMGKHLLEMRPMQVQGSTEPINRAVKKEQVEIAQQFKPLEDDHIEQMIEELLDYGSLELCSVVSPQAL

Data set [2] deals with T1, CsESE3. The experiment in a line: EMSA; shift attenuated by excess (up to 28x) cold probe; EMSA as in Gong et al. 2021b; buffer, salt, pH and temperature not given; 5' FAM probes, 100 uM unlabeled competitor stocks, 7x/14x/28x excess. As to conditions: protein: recombinant; tags: N-terminal His (pETDuet); label: 5' FAM (top strand); blunt.

B1: Probe_PLIP_Like (CsPLIP_Like promoter GCC-box) (dsDNA)
DNA 1: AAATAAACTAAGCCGCCTTGTCATATT
DNA 2: AATATGACAAGGCGGCTTAGTTTATTT
Take B1: the binding result in the data set with CsESE3 [1] is given as “binds”.

B2: Probe_PLIP (CsPLIP1 promoter GCC-box) (dsDNA)
DNA 1: GAGCCTCACTAGCCGCCATTGTCCCCG
DNA 2: CGGGGACAATGGCGGCTAGTGAGGCTC
Consider B2, for which the binding result with CsESE3 [2] is “binds”.
